Source: patent US20070179113A1, “GM-CSF gene therapy for Crohn's disease using an improved regulated expression system” (Schering Aktiengesellachaft, priority 2005, published 2007)

Columns and labels:
[1] = test system: DSS-induced colitis in Balb/C mice; test: DSS-induced colitis model (5% DSS), validation, Disease Activity Index; format: in vivo; settings: daily treatment, Mesopram/Metronidazole 50 mg/kg IP, mGM-CSF 5 μg non-pegylated, 5 or 10 μg pegylated
Procedure: Disease was induced in BalbC mice (N=10/group) by DSS (5%) applied daily in the drinking water. Mesopram, Metronidazole, or yeast expressed non-pegylated respectively pegylated mGM-CSF, was administered daily over a period of 8 days. Clinical scores (Daily Activity Index (DAI), a cumulative index of: weight loss, stool consistency, and rectal bleeding) were recorded daily.
(§1) Likewise, the DSS-induced mouse colitis model is useful for evaluating therapies for UC, IBD and CD. Disease is induced in mice by daily administration of 5% or 7% dextran sodium sulfate (DSS) in the drinking water over 8 days. Disease progression is monitored by the Daily Activity Index (DAI), a cumulative index of: weight loss, stool consistency, and rectal bleeding, which mimics the symptoms of UC, IBD and/or CD.
vi. DSS-induced colitis model. Prior to the gene delivery study the model was established and validated in Balb/C mice using non-pegylated and pegylated mGM-CSF protein. Disease was induced in Balb/C mice with 5% dextran sodium sulfate (DSS), provided in the drinking water every day over a period of 8 days. As the main endpoint, the Disease Activity Index (DAI, a cumulative index of: weight loss, stool consistency, and rectal bleeding) was recorded daily. […]

[2] = mGM-CSF concentration in sera at day 8 of the DSS colitis study; settings: final day of DSS study
Procedure: At day 8, the final day of the study, mGM-CSF concentrations were measured in sera of all mice.

[3] = test system: DSS-induced colitis; test: DSS-induced colitis model (7% DSS), proof of concept with pCMV-GMCSF plasmid DNA; format: in vivo, mice; settings: plasmid single injection day 0 + EP, drugs and protein daily
Procedure: Two concentrations of pCMV-mGMCSF were tested side by side with a control plasmid (pNull) and two mGM-CSF protein formulations, non-pegylated and pegylated in the DSS-induced colitis model (N=10/group). A single plasmid DNA injection was administered at day 0 followed by electroporation. Murine GM-CSF protein was injected s.c. daily. Disease was induced with 7% DSS in the drinking water and clinical scores (DIA) were recorded daily.
as §1
vii. […] In this study the efficacy of pGMCSF plasmid DNA was evaluated side by side with Mesopram, Metronidazole, non-pegylated or pegylated mGM-CSF. The disease was induced using 7% DSS, administered daily in the drinking water. Mesopram, Metronidazole and mGM-CSF protein were administered daily, using the same dosing regimen as described for the validation study. pGMCSF plasmid DNA was injected at day 0 followed by electroporation. […]

[4] = Pharmacokinetic study of mGM-CSF protein formulations, serum mGM-CSF ELISA; format: in vivo, BalbC mice; settings: i.m. injection
Procedure: FIG. 40 illustrates the use of ELISA for detection of murine GM-CSF. BalbC mice (n=5/group) were injected i.m. with 5 or 10 μg non-pegylated, or 5 μg pegylated mGM-CSF. Mice received either a single injection or 4 daily injections. Serum was obtained 1, 3, 6, and 12 hours following the single injection or the fourth injection. mGM-CSF levels in serum were measured using the ELISA from R&D (Minneapolis).
i. GM-CSF ELISA validation. A commercially available ELISA (R&D, Minneapolis) was validated for the detection of murine (m)GM-CSF in serum. In a pharmacokinetic study two formulations of mGM-CSF protein, non-pegylated or pegylated, were injectedi.m. and serum samples were assayed for mGM-CSF. […] The levels of non-pegylated mGM-CSF dropped rapidly within 3 hours following administration, whereas pegylated mGM-CSF was detectable over a 12 hour period.

B1: non-pegylated mGM-CSF: yeast expressed non-pegylated murine GM-CSF protein (protein, UniProt P01587 18-141, looked up)
Granulocyte-macrophage …: APTRSPITVTRPWKHVEAIKEALNLLDDMPVTLNEEVEVVSNEFSFKKLTCVQTRLKIFEQGLRGNFTKLKGALNMTASYYQTYCPPTPETDCETQVTTYADFIDSLKTFLTDIPFECKKPGQK
For B1, the DAI score [1] was “significantly reduced”, the “GM-CSF in sera at day 8” value [2] was “could be measured” and the “disease scores (DAI)” value [3] was “efficacious”. For the same molecule, the “time within which serum levels dropped rapidly following administration” value [4] was no more than 3 h.

B2: pegylated mGM-CSF: pegylated murine GM-CSF protein (conjugate, UniProt P01587 18-141, looked up)
Granulocyte-macrophage …: APTRSPITVTRPWKHVEAIKEALNLLDDMPVTLNEEVEVVSNEFSFKKLTCVQTRLKIFEQGLRGNFTKLKGALNMTASYYQTYCPPTPETDCETQVTTYADFIDSLKTFLTDIPFECKKPGQK
modifications: PEG
notes: pegylated murine GM-CSF protein
In the case of B2, the DAI score [1] is reported as “significantly reduced”, the “disease scores (DAI)” value [3] is reported as “efficacious” and the “period over which detectable in serum” value [4] is reported as 12 h.
